Binding signal (fold Kd-bending increase vs DF-6,1) and Kd data for five substances are collected here from publication PMC5358979.

Data set [1] concerns FEN1 WT (Homo sapiens). The experiment in a line: smFRET. The note with it: smFRET reaction buffer with CaCl2 (binding) or MgCl2 (cleavage), SPR in same buffer with CaCl2, no oxygen scavenger, salt, pH and temperature not given in the …; for Kd: Ca2+, Kd-bending.
Data set [2] concerns FEN1 WT (Homo sapiens). Kind of data set: smFRET dwell-time kinetics. The following applies: smFRET reaction buffer with CaCl2 (binding) or MgCl2 (cleavage); SPR in same buffer with CaCl2, no oxygen scavenger; salt, pH and temperature not given in the ….

Regarding DF-7,1mismatch(1nt), in the data set with FEN1 WT (Homo sapiens) [1], the binding signal (fold Kd-bending increase vs DF-6,1) was 7. The Kd is the free concentration of one partner at which half of the binding sites on the other are occupied at equilibrium, for simple one-to-one binding. As for EQ DF-6,1Flap, the Kd in the data set on FEN1 WT (Homo sapiens) [2] was 3.2 nM.

On to NonEQ DF-6,1Flap, for which the Kd with FEN1 WT (Homo sapiens) [1] came to 3.9 nM. The same measure, in the same setting: the same measure for NonEQ DF-6,1dsDNA: 4.6 nM. In the case of SF-6,0Flap, the Kd in the data set on FEN1 WT (Homo sapiens) [2] is 166 nM.
